Data published in patent US11591604B2, “Gene expression in Bacteroides” (Massachusetts Institute of Technology, priority 2015, dated 2023).

How the values were obtained:
Bacteroides spp = experiment: pNBU1 integration and gene expression across Bacteroides and Parabacteroides species; assay type: cell-based
Source text: FIG. 11 is a graph showing that pNBU1 may be used to target, for example, B. thetaiotaomicron, B. fragilis, B. ovatus, B. vulgatus, B. caccae, B. eggerthii, B. vulgatus and Parabacteroides distasonis.
An integration vector, designated pNBU1, was created to introduce recombinant DNA into a wide range of Bacteroides species (FIG. 10). IntN1 integrase catalyzes site-specific genomic integration of the plasmid into recipient Bacteroides strains.

[1] = tested on: integrase recognition sequences in the memory array; experiment: Integrase-mediated DNA inversion in chromosomal memory array detected by PCR; assay type: cell-based, B. thetaiotaomicron; settings: integrase expressed from PAM4-rpiL*, PCR detection
Source text: (FIG. 3C) Integrase-mediated DNA inversion at each integrase target sequence in the memory array cassette was detected by polymerase chain reaction (PCR). Primer pairs (arrows) anneals to the interface of the integrase recognition sites and to the spacer region between recognition sites. PCR amplification occurs only after an inversion event (solid lines below the primer arrows indicate expected amplicons). (FIG. 3D) Representative PCR products are shown after recombination. − indicates no integrase, + indicates the integrase is present. PAM4-rpiL* was used to control expression of each integrase.

B. thetaiotaomicron = experiment: Cell growth (OD600) of P3763-rpiL*C51-Int12 strain versus rhamnose concentration; assay type: cell-based; settings: even when maximally expressed
Source text: FIGS. 8A-8B. Integrase characterization. (FIG. 8A) Representative PCR products are shown for wild-type (unflipped) memory array at each integrase recognition sequence. “−” indicates no integrase, “+” indicates the integrase is present. PAM4-rpiL* was used to control expression of each integrase. (FIG. 8B) Cell growth of the P3763-rpiL*C51-Int12 strain is shown as optical density (OD) at 600 nm as a function of rhamnose concentration. Inducer concentrations were three-fold serial dilutions starting at 10 mM rhamnose. The leftmost data point represents the […] in the absence of inducer. Cells were grown 8 hours at 37° C. before measuring the OD600 value for each culture. Error bars represent the standard deviation of three biological replicates made on three different days (n=3).
To create an inducible memory switch, Int12 was cloned under the control of the rhamnose-inducible promoter with the rpiL*RBS variant C51 (FIG. 3E) (see also FIG. 1C, Table 1).

“pNBU1: integration vector with IntN1 integrase, SEQ ID NO: 209” was tested, and the “host range and efficiency relative to the pNBU2 plasmid” value (Bacteroides spp) was “greater host range and efficiency”.

B1: Int12: Serine integrase, SEQ ID NO: 167 (protein)
chain: MKVAIYTRVSSAEQANEGYSIHEQKKKLISYCEIHDWNEYKVFTDAGISGGSMKRPALQKLMKHLSSFDLVLVYKLDRLTRNVRDLLDMLEEFEQYNVSFKSATEVFDTTSAIGKLFITMVGAMAEWERETIRERSLFGSRAAVREGNYIREAPFCYDNIEGKLHPNEYAKVIDLIVSMFKKGISANEIARRLNSSKVHVPNKKSWNRNSLIRLMRSPVLRGHTKYGDMLIENTHEPVLSEHDYNAINNAISSKTHKSKVKHHAIFRGALVCPQCNRRLHLYAGTVKDRKGYKYDVRRYKCETCSKNKDVKNVSFNESEVENKFVNLLKSYELNKFHIRKVEPVKKIEYDIDKINKQKINYTRSWSLGYIEDDEYFELMEEINATKKMIEEQTTENKQSVSKEQIQSINNFILKGWEELTIKDKEELILSTVDKIEFNFIPKDKKHKTNTLDINNIHFKF
B1 was tested, and the “recombination at the respective recognition sequence in the memory array” value [1] was “catalyzed recombination” and the “impact on growth of B. thetaiotaomicron” value (B. thetaiotaomicron) was “did not impact growth”.
